# Measurements as given in the nanobody polyreactivity screen of Harvey et al. (2022).
# Test: yeast display, Sf9 membrane polyspecificity reagent, FACS + sequencing; frameworks hold sequencing errors
# Outline: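 Using colony PCR, genes from sorted yeast display clones were amplified, then sequenced on MiSeq at 2 × 250 and filtered by CDR length. The clones had been stained with 10% biotinylated, detergent-solubilized Sf9 membrane reagent for 1 hour at 4 °C and sorted by FACS into low and high (top ~1%) gates on anti-HA and streptavidin fluorescence. Polyreactivity labels come from the gate of origin.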
row,Sequence,polyreactivity (PSR sort gate)
1,QVQLVESGGGLVQAGGSLRLSCAASGSIFAGYTMGWYRQAPGKERELVATITRSGTSTFYADSVKGRFTISRDNAKNTVYLQMNSLKPEDTAVYYCAADVTARYDYWGQGTQVTVSS,high polyreactivity
2,PVQLVESGGGLVQAGGSLRLSCAASGITIYYYGMGWYRQPPGKERELVAAITTGVNTNYADSVKGRFTISRDNAKITVYLQMNSLKPEDTAVYYCAAEYRIPYFFTYGYWGQGTQVTVSS,high polyreactivity
3,QVQLVESAGGLVQAGGSLRLSCAPSGRIFPVNSMGSYRQAPGKERELVATMSSGDITNYADSVKGRFTISRDNATITVYLQMNCLKPEDNAVYYCARDSKRLARYYYWGQGTQVTVSS,low polyreactivity
4,QVQLVESGGGLVQAGGSLRLSCAASGFTFTIYAMGWYRQAPGKERELVATISGRAGRTYYADSVKGRFTISRDNAKNTVYLQMNSLKPEDTAVYYCNAGQWRYPGLYYYWGQGTQVTVSS,high polyreactivity
5,QVQLVESGGGLVQAGGSLRLSCAASGFTFDSYAMGWYRQAPGKERELVAAITSTGGSTYYADSVKGRFTISRDTAKNTVYLQMNSLKPEDTAVYYCAARGGYYKRGYWGQGTQVTVSS,high polyreactivity
6,QVHLVESGGGLFQAGGSLRLSCAASGRTFYYNAMGWYRQAPGKEREFVAAITWSGTRTYYADSVKGRFTISRDNAKNTVYLQMNSLKPEDTAVYYCNARAGSGSRFGYWGEGTQVTVSS,high polyreactivity
7,QVQLVESGGGLVQAGGSLRLSCAASGNIFDEYTMGWYRQAPGKERELVAAINSGGSTDYADSVKGRFTISRDNAKNTVYLQMNSLKPEDTAVYYCARDVWPTKIQLQPGYGRGEYWGQGTQVTVSS,low polyreactivity
8,QVQLVESGGGLVQAGGSLRLSCAASGFIFPVNAMGWSRQAPGKERELVAGITSSGGSTYYADSVKGRFTISRDNAKNTVYLQMNSRKPEDTAVYYCNAYIDALPVSYHFDYWGQGTQLTVSS,low polyreactivity
9,QDQLVESGGGLVQAGGSLRLSCAASGFIFNYYGMGWYRQAPGKERELVATISRGASTNYADSVKGRFTISRDNAKNTVYLQMNSLKPEDTAVYYCAKDYGDWGQGTQVTVSS,low polyreactivity
10,QVQLVESGGGLVQAGGSLRLSCAASGNIFIYNAMGWYRQAPGQERELVAAISVSGGDTYYADSVKGRFTISRDNAKNTVYLQMNSLKPEDTAVYYCKASYVLTGQRYGYWGQGTQVTVSS,low polyreactivity
11,QVQLVESGGGLVQAGGSLRLSCAASGNIFDHYAMGWYRQAPGKEREMVAAISSGGSTSYADSVKGRFTITRDNAKTTVYVQMNCLKPEDTAVYYCAAESFVQYKSPKWVHRYDSWGQGTQVTVSS,low polyreactivity
12,QVQLVESGGGLVQAGGSLRLSCAASGRTFKKYAMGWYRQAPGTERELVAAFTGSGGSTYYADSVKGRFTISRDNAKNTVYLKMNSLKPEDTAVYYCAAYAYGVWHSQDGGNYWGQGTQVTVSS,low polyreactivity
13,QFQLVESGGGLVQAGGSLRLSCAASRRTFTYYDMGWYRQAPGNEGELVSAISRRGGSTYYADSVKGRFTISRDNAKNTVYFQMNSLKPEDTAVYYCAAEVRLFSYTYSFFRYEYWGQGTHVTVSS,high polyreactivity
14,QVQLVESGGGLVQAGGSLRLSCAASGRTVVNAMGWYRQAPGKERELVAAISSNGGRTYYADSVKGRFTISRDNAKNTVYLQMTSLKPEDTAVYYCAKGLGIRPTYYYWGQGTKVTVSS,high polyreactivity
15,QVQLVESGGGLVQAGGSLRLSCAASGRTFKYYAMGWYRQAPGKERELVAAISYNGGSTFYADSVKGRFTFSRDNAKNTVYLQMNSLKPEDTAVYYCAAGPRGTGKYYWGQGTQVTVSS,high polyreactivity
16,QVQLVESGGRIVQAGGSLRLSCAASGRTFPINAMGWYRQAPGKERELVASIRWTDGTTYYADSVKGRFTISRDNAKNTVYLQMNSLKPEDTAVYYCAADAEGSASKYDYWGQGTQVTVSS,low polyreactivity
17,QVQLVESVGGLVQAGGSLRLSCSASGLIFYDYDMGWYRQAPGKERELVAAISNDASTYYAHSVKGRFTISRDNAKNTVYFQMNSLKTEDTAVYFCAAEPYVFGLSSKPFWYNYWGQGTQVTVSS,low polyreactivity
18,QDQLVESGGGLVQAGGSLRLSCAASGSTLFIYARGWYRQAPGKEREFVAGISYSGGSTYYADSVKGRFTISRDNAKNTVYLQMNSLKPEDTAVYYCAAATVYLSWYYWGQGTQVTVSS,high polyreactivity
19,QVQLVESGGGLVQAGGSLRLSCAASGRIFVRNGMGWYRQAPGKERELVAAISASGGNTYYADSVKGRFTISRDNAKNTVYLQMNSLKPEDTAVYYCATTRRVPGEYWGQGTQVTVSS,high polyreactivity
20,QVQLVESGGGLVQAGGSLRLSCAASGIIFFPYAMVWYRQAPGKEREFVAAITSRGGSTYYADSVKGRFTISRDNAKNTVYLQMNSLNPEDTAVYYFAADGWLWSFTGDGWWFDYWGQGTQVTVSS,low polyreactivity
21,QVQLVESGGGLVQAGGSLRLSCAASGSTFVGYAMRGYRQAPGKERELVADIDSIGGSTYYADSVKGRFTISRDNAKNTVYLQMNSLKPEDTAVYYCAARRFDTALVLYDYWGQGTQVTVSS,low polyreactivity
22,QVQLVESGGGLVQAGGSLRLSCAASGFTFAVYAMGWYRQAPGKERELVAAISRSGTRTYYADSVKGRFTISRDNAKNTVYLQMNSLKPEDTAVYYCAADKYRHGYDYWGQGTQVTVSS,low polyreactivity

row,Sequence,polyreactivity (PSR sort gate)
1,QVQLVESGGGLVQAGGSLRLSCAASGRTLEHNAMGWYRQAPGKERELVAAITDGGASTYYADSVKGRFTISRENAKNTVYLQMNSLKPEDTAVYYFAADTYPTTSEFDYWGQGTQVTVSS,low polyreactivity
2,QVQLVESGGGLVQAGGSLRLSCAASGSIFTFYTMGWYRQAPGKERELVAAISQTGGRTYYADSVKGRFTISRDTAKNTVYLQMNSLKPEDTAVYYCDADYYYDISDWVYEYYYWGQGTQVTVSS,high polyreactivity
3,PVQLVESGGGLVQAGGSHRLSCAASGSIFYFNAMGWYRQAPGKERELVAVITDRGSTYYSDSVKGRFTISRDNAKNTVYLQMNSLKPEDTAVYYCAAQTPGVYLRQIGGYYYWGQGTQVTVSS,low polyreactivity
4,QVQLVESGGGLVQAGGSLRLSCAASGSTFGQNAMGWYRQAPGKERELVAAITRRGVSTYYADSVKGRFTISRDNAKNTVYLQMNSLKPEDTAVYYCAKRYHPNSPYDYWGQGTQVTVSS,low polyreactivity
5,QVQLVESGGGLVQAGGSLRLICAASGRIIYCNGMGWYRQAPGKERELVAAISSGGSTYYADSVKGRFTISRDNAKNTVYLQMNCLKPEDTAVYYCAADIDYESDRYDYWGQGTQVTVSS,low polyreactivity
6,QVQLVESGGGLVQAGGSLRLSCAASGSIFDQNAMGWYRQAPGKERELVAAITFSGVDTYYADSAKGRFTISRDNAKNTVYLQMNSLKPEDTAVYYCNADRGYNLVRRSQAVVEMDYWGQGTQVTVSS,low polyreactivity
7,QVQLVESGGGLVQAGGSLRLSCAASGIIFASYALGWYRQAPGKERELVAAISGGGSTYYADSVKGRFTISRDNAKNTVYLQMNSLKPEDTAVYYCNADVTLRLWAYYYYRYNYWGQGTQVTVSS,low polyreactivity
8,QVQLVDSGGGLVQAGGSLRLSCPASGSTFSRYAMGWYRQAPGKERELVAAISRSGGTTYYADSVKGRFTISRDNAKNTVYLQMNSLKPEDTAVYYCNDRGRYEYGYWGQGTQVTVSS,high polyreactivity
9,QVQLVESGGGLVQAGGSLRLSCAASGGIFDTYAMGWYRQAPGKERELVAAISRRGGNTYYADSVKGRFTIARDNAKNTVYLQMNSLKPEDTAVYYCAAYYHGRMDYWGQGTQVTVSS,high polyreactivity
10,QVQLVESGGGLVQAGGSLRLSCAASGRILGRYAMGWYRQAPGKERELVAAITSGGNTTYADSVKGRFTISRDNAKNTVYLQMNSLKPEDTAVYYCAAYSYTQLNLMDYWGQGSQVTVSS,low polyreactivity
11,QGQLVESGGGLVQAGGSLRLSCAASGFIFRYYTMGWYRQAPGKERELVATITSGGSTYYADSVKGRFTISRDNAKNTVYLQMNSLKPEDTAVYYCNADTLGGKYVYQDRRGFDYWGQGTQVSVSS,high polyreactivity
12,QVQLVESGGGLVQAGGSHRLSCAASGITFTVNSMGWYRQAPGKERELVAAISNDGSTYYADSVKGRFTISRDNAKNTVYLQMNSLKPEDTAVYYCAADTWDDFGPYGYDYWGQGTHVTVSS,low polyreactivity
13,QDQLVESGGGLVQAGGSLRLSCAASGSIFQYYAMGWYRQAPGKERELVAAISYSGDGTFYADSVKGRFTISRDNAKNSVYLQMNSLKPVDTAVYYCAASSTGYGGSTYYYWGQGTQVTVSS,low polyreactivity
14,QVQLVESGGGLVQAGGSLRLSCAASGSTFVSNTMGWYRQAPGKERELVAAITWTGGRTYYADSVKGRFTISRDNAKNTVYLQMNSLKPEDTAVYYCAAVGTRKMYYWGQGTQVTVSS,high polyreactivity
15,QVQLVESGGGLVQAGGSLRLSCAASGRTFPGYAMGWYRQAPGKERELVAGISYRGGSTYYADSVKGRFTISRDNAKNTVYLQMYSLKPEDTAVYYCARDYSRHKGDYWGQGTQVTVSS,low polyreactivity
16,QVQLVESGGGIVQAGGSLRLSCAASGRTFRWNVMGCYRPAPGKERELVATISRRSGSTNYADSVKGRFTISRDNAKNTVYLQINSLKPEDTALYYCAVVIVRALVYSGDYWGQGTQVSVSS,low polyreactivity
17,QVQLVESGGGLVQAGGSLGLSSAASGRTFGVYAMGWYRQAPGKERELVAGIRWRGGSTYYADSVKGRFTISRDNAKNTVYLQMNSLKPEDTAVYYCAADVYLVKYDYWGQGTQVTVSS,low polyreactivity
18,QVQLVESGGGLVQAGGSLRLSCAASGRTFYSNAMGWYRQAPGKERELVAAITSTDDSTYYADSVKGRFTISRDNAKNTVNLQMYSLKPEYTAVYYCNTDGLIAIRGLWWFEFDYWGQGTQVTVSS,low polyreactivity
19,QDQHVESGGGLVQAGGSLRLSCAASGITFNKYAMGWYRQAPGKERELVAAISFSGGSTYYADSVKGRFTISRDNAKNTVYLQMNSLKPEVTAVYYCAAVWGYVIWVDTAVYREYDYWGQGTQVTVSS,high polyreactivity
20,QLQLVESGGGLVQAGGSLRLSCAASGRIFEYYAMGWYRQAPGKERELVAAISWSGGSTYYADSVKGRFTISRDNAKNTVYLQMNSLTPEDTAVYYCARDLPYYSISRYDYWGLGTQVTVSS,high polyreactivity
21,QVQLEESGGGLVQAGGSLRISCAASVRILSWYAIGWYRQAPGKERELVAAISVRGSTYYADSVKGRFTISRDNAKNTVYLQMNSLKPDDTAVYYSNRVWLQASTTIVVSSRRLYYWGLGTQVTVSS,high polyreactivity
